Source: publication doi:10.1101/2025.04.14.648677 (bioRxiv, 2025)
One block for each molecule: values may come before it.

Assays:
[1] = target: IRE1β_LD, wildtype (analytical SEC) (not stated (human numbering used; mouse IRE1β_LD used in cells)); test: SEC
[2] = target: the molecule itself; test: SEC-SAXS
[3] = target: the molecule itself; test: AUC
[4] = target: T1, AGR2 H117Y (not stated (human or mouse AGR2 made)), O95994; test: SEC; conditions: remark: other sources report otherwise
T1 chain: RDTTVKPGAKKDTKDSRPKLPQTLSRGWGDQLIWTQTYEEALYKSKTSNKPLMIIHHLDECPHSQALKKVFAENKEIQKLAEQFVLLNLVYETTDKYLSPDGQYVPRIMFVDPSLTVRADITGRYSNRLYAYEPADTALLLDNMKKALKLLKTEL

- stoichiometry N [1]: 2
Molecule: IRE1β_LD, wildtype (analytical SEC) (domain or fragment)

- stoichiometry N [4]: 2
B3: AGR2 H117Y, O95994 21-175 (natural protein)
chain: T1 chain

Further lines, the molecule ahead of its results:

B1: Human AGR2^41-171 (domain or fragment, UniProt O95994 41-171, looked up)
chain: PQTLSRGWGDQLIWTQTYEEALYKSKTSNKPLMIIHHLDECPHSQALKKVFAENKEIQKLAEQFVLLNLVYETTDKHLSPDGQYVPRIMFVDPSLTVRADITGRYSNRLYAYEPADTALLLDNMKKALKLL
- stoichiometry N [2]: 2

B2: mouse AGR2 (residues 21-175), AUC (natural protein, UniProt O88312 21-175, looked up)
chain: KDTTVKSGAKKDPKDSRPKLPQTLSRGWGDQLIWTQTYEEALYRSKTSNRPLMVIHHLDECPHSQALKKVFAEHKEIQKLAEQFVLLNLVYETTDKHLSPDGQYVPRIVFVDPSLTVRADITGRYSNRLYAYEPSDTALLYDNMKKALKLLKTEL
- binding result [3]: binds
